Assay results reported in patent publication US8524227B2, “Anti-IL-TIF antibodies” (ZymoGenetics, Inc., priority 2002, dated 2013).

Columns and labels:
[1] = Mouse collagen induced arthritis (CIA) model; format: in vivo, mice; settings: for IL-6 levels / SAA concentrations: Day 0 serum 4 hr post 25 μg LPS
Procedure: Ten week old male DBA/1J mice (Jackson Labs) were divided into 3 groups of 13 mice/group. On day-21, animals were given a subcutaneous injection of 50-100 μl of 1 mg/ml chick Type II collagen formulated in Complete Freund's Adjuvant (prepared by Chondrex, Redmond, Wash.), and three weeks later on Day 0 they were given a 100 μl (25 μg) injection of LPS from E. coli 0111:B4, prepared as 250 μg/ml from a lyophilized aliquot (Sigma, St. Louis, Mo.). Zcytor16 was administered as an intraperitoneal injection 3 times a week for 4 weeks, from Day 0 to Day 25. The first two groups received either 100 or 10 μg of zcytor16 per animal per dose, and the third group received the vehicle control, PBS (Life Technologies, Rockville, Md.). Animals began to show symptoms of arthritis following the LPS injection, with most animals developing inflammation within 2-3 weeks. The extent of disease was evaluated in each paw by using a caliper to measure paw thickness, and by assigning a clinical score (0-3) to each paw: 0=Normal, 0.5=Toe(s) inflamed, 1=Mild paw inflammation, 2=Moderate paw inflammation, and 3=Severe paw inflammation as detailed below.
All animals were observed daily to assess the status of the disease in their paws, which was done by assigning a qualitative clinical score to each of the paws. Every day, each animal has its 4 paws scored according to its state of clinical disease. To determine the clinical score, the paw can be thought of as having 3 zones, the toes, the paw itself (manus or pes), and the wrist or ankle joint. The extent and severity of the inflammation relative to these zones was noted including observation all the toes for any joint swelling, torn nails, or redness, notation of any evidence of edema or redness in any of the paws, and notation any loss of fine anatomic demarcation of tendons or bones, and evaluation the wrist or ankle for any edema or redness, and notation if the inflammation extends proximally up the leg. A paw a score of 1, 2, or 3 was based first on the overall impression of severity, and second on how many zones were involved. The scale used for clinical scoring is shown below.
Blood was collected throughout the experiment to monitor serum levels of anti-collagen antibodies. Animals were euthanized on Day 21, and blood was collected for serum and for CBC's. From each animal, one affected paw was collected in 10% NBF for histology and one was frozen in liquid nitrogen and stored at […] for mRNA analysis. Also, ½ spleen, ½ thymus, ½ mesenteric lymph node, one liver lobe and the left kidney were collected in RNAlater for RNA analysis, and ½ spleen, ½ thymus, ½ mesenteric lymph node, the remaining liver, and the right kidney were collected in 10% NBF for histology. Serum was collected and frozen at −80° C. for immunoglobulin and cytokine assays.
Approximately 100 μL of peripheral blood was collected by retro-orbital bleed into serum separator tubes (Becton Dickinson). Serum was collected by centrifugation (2-3 min, 16,000×g, 4-6° C.) and stored at −20° C. until analyzed. To determine anti-collagen Ig antibody levels, NUNC plates were coated with 10 μg/mL chick type-II collagen (Chondrex, Redmond Wash.) and incubated overnight at 4° C. Plates were washed with ELISA C, blocked (5 minutes, room temperature) with Super Block (Pierce, Rockford, Ill.), and washed with ELISA C. Diluted serum samples (diluted in ELISA B 5-fold from 1:5000 to 1:625,000) were added to ELISA plates in triplicate and the plates were incubated overnight at 4° C. After incubation, the plates were washed with ELISA C, and peroxidase-labeled goat anti-mouse Ig Fc (Zymed, 1:2000 in ELISA B) was added. The plates were incubated (room temperature, 90 minutes), rinsed again using ELISA C, and HRP activity was developed using o-phenylenediamine dihydrochloride substrate (10 mL NovoD+1 tablet OPD+10 μL H2O2, Pierce). The reaction was stopped with 1N H2SO4. […]

[2] = LPS-induced endotoxemia mouse model; format: in vivo, mice
Procedure: Briefly, six month Balb/c (CRL) female mice were injected with 25 μg LPS (Sigma) in sterile PBS intraperitoneally (IP). Serum samples were collected at 0, 1, 4, 8, 16, 24, 48 and 72 hr from groups of 8 mice for each time point. Serum samples were assayed for inflammatory cytokine levels. IL-1b, IL-6, TNFa, IL-10 and serum amyloid A protein (SAA) levels were measured using commercial ELISA kits purchased from Biosource International (Camarillo, Calif.).
Body temperatures in a separate group of animals were monitored by surgically implanted telemetry devices over the course of the 72 hr experiment. Body temperatures in mice dropped maximally by 2° C. from 37.07° C. to 34.98° C. 30 minutes after LPS injection.
The ability of zcytor16 treatment to effect proinflammatory indicators induced with a single 25 μg LPS dose IP in mice was tested. All samples were analyzed for SAA, IL-TIF and circulating neutrophil counts. Subsets from each group were analyzed for particular cytokine levels (1 hour samples were screened for TNF alpha, 4 hour samples were analyzed for IL-6) Animals were sacrificed at indicated time points in Table 17 below and whole blood and serum were collected and aliquoted for analysis.
72 B1/6 female mice (CRL) were given a single IP dose of zcytor16 as described in Table 17, below. Control mice were C57B1/6 (CRL).
30 minutes later, they received another IP injection of 25 μg LPS (Sigma) in 100 μl, to initiate an endotoxemia cascade.
To assess whether zcytor16 could inhibit the SAA induction in the LPS-induced endotoxemia mouse model, mice were injected with Zcytor16, 30 minutes prior to LPS injection, as shown in Table 17 in Example 31C above.
An ELISA to determine SAA levels in the 4 hour and 8 hour samples was performed using the Mouse SAA Immunoassay Kit (BioSource International, California) following the manufacturer's directions.

B1: zcytor16-Fc4: soluble receptor for IL-TIF, zcytor16 fused to Fc4; IL-TIF antagonist (protein)
chain: TQSTHESLKPQRVQFQSRNFHNILQWQPGRALTGNSSVYFVQYKIYGQRQWKNKEDCWGTQELSCDLTSETSDIQEPYYGRVRAASAGSYSEWSMTPRFTPWWETKIDPPVMNITQVNGSLLVILHAPNLPYRYQKEKNVSIEDYYELLYRVFIINNSLEKEQKVYEGAHRAVEIEALTPHSSYCVVAEIYQPMLDRRSQRSEERCVEIPEPRSSDKTHTCPPCPAPEAEGAPSVFLFPPKPKDTLMISRTPEVTCVVVDVSHEDPEVKFNWYVDGVEVHNAKTKPREEQYNSTYRVVSVLTVLHQDWLNGKEYKCKVSNKALPSSIEKTISKAKGQPREPQVYTLPPSRDELTKNQVSLTCLVKGFYPSDIAVEWESNGQPENNYKTTPPVLDSDGSFFLYSKLTVDKSRWQQGNVFSCSVMHEALHNHYTQKSLSLSPGK
- disease score (paw score, incident of inflammation or disease) ([1]; 10 μg three times a week for 4 weeks): significantly reduced the disease score
- IL-6 levels ([1]; 10 μg zcytor16): 10,865+/−1478 pg/ml
- SAA concentrations ([1]; 10 μg zcytor16): 348 ± 37 µg/mL
- levels of anti-collagen antibodies ([1]; 100 μg or 10 μg groups vs PBS, serum ELISA): no statistically significant effects
- IL-6 levels ([1]; 100 μg zcytor16): 9651 ± 1563 pg/mL
- SAA concentrations ([1]; 100 μg zcytor16): 381 ± 40 µg/mL
- paw scores and measurements ([1]; 100 or 10 μg IP 3 times a week for 4 weeks vs PBS): No statistically significant differences
- changes in body weight, CBC parameters, or anti-collagen antibody levels ([1]; 100 or 10 μg IP vs PBS): no significant differences
- effect on SAA induction ([2]; 10 ug 30 minutes prior to LPS): did not have significant effect
- reduction of the SAA induction ([2]; 100 ug 30 minutes prior to LPS, 4 hr and 8 hr): about 50%
- neutrophil count in circulation ([2]; 1 hr time point): reduced neutrophil count
- SAA levels relative to PBS injected mice ([2]; 4 hour, 100 μg or 10 μg): dose-dependant, statistically significant reduction
- SAA levels relative to PBS injected mice ([2]; 8 hour, 100m): statistically significant reduction
- TNF-alpha and IL-6 level ([2]; mouse, in vivo): no significant change
